Results reported in publication PMC11132685.

Columns and labels:
Assay in all cases: SEC-MALS; purified NACHOs; oligomeric state; conditions not given
[1] = biological target: tetrabrachion-stabilised recombinant N2 NA (NACHO) of A/ALASKA/251/2015 (not stated | influenza A virus (H3N2) A/ALASKA/251/2015)
[2] = biological target: tetrabrachion-stabilised recombinant N2 NA (NACHO) of A/DAKAR/14/2014 (not stated | influenza A virus (H3N2) A/DAKAR/14/2014)
[3] = biological target: tetrabrachion-stabilised recombinant N2 NA (NACHO) of A/ESTONIA/91621/2015 (not stated | influenza A virus (H3N2) A/ESTONIA/91621/2015)
[4] = biological target: tetrabrachion-stabilised recombinant N2 NA (NACHO) of A/GAMBIA/G0071436/2012 (not stated | influenza A virus (H3N2) A/GAMBIA/G0071436/2012)
[5] = biological target: tetrabrachion-stabilised recombinant N2 NA (NACHO) of A/HANOI/ELI15597/2015 (not stated | influenza A virus (H3N2) A/HANOI/ELI15597/2015)
[6] = biological target: tetrabrachion-stabilised recombinant N2 NA (NACHO) of A/HEILONGJIANGXIANGYANG/1134/2011 (not stated | influenza A virus (H3N2) A/HEILONGJIANGXIANGYANG/1134/2011)
[7] = biological target: tetrabrachion-stabilised recombinant N2 NA (NACHO) of A/HELSINKI/823/2013 (not stated | influenza A virus (H3N2) A/HELSINKI/823/2013)
[8] = biological target: tetrabrachion-stabilised recombinant N2 NA (NACHO) of A/HELSINKI/941/2013 (not stated | influenza A virus (H3N2) A/HELSINKI/941/2013)
[9] = biological target: tetrabrachion-stabilised recombinant N2 NA (NACHO) of A/HOKKAIDO/10H079/2011 (not stated | influenza A virus (H3N2) A/HOKKAIDO/10H079/2011)
[10] = biological target: tetrabrachion-stabilised recombinant N2 NA (NACHO) of A/HONGKONG/3089/2017 (not stated | influenza A virus (H3N2) A/HONGKONG/3089/2017)
[11] = biological target: tetrabrachion-stabilised recombinant N2 NA (NACHO) of A/INDIANA/08/2011 (not stated | influenza A virus (H3N2) A/INDIANA/08/2011)
[12] = biological target: tetrabrachion-stabilised recombinant N2 NA (NACHO) of A/INDIANA/18/2017 (not stated | influenza A virus (H3N2) A/INDIANA/18/2017)
[13] = biological target: tetrabrachion-stabilised recombinant N2 NA (NACHO) of A/MINNESOTA/11/2010 (not stated | influenza A virus (H3N2) A/MINNESOTA/11/2010)
[14] = biological target: tetrabrachion-stabilised recombinant N2 NA (NACHO) of A/NAGANO/2153/2017 (not stated | influenza A virus (H3N2) A/NAGANO/2153/2017)
[15] = biological target: tetrabrachion-stabilised recombinant N2 NA (NACHO) of A/NEWCALEDONIA/23/2016 (not stated | influenza A virus (H3N2) A/NEWCALEDONIA/23/2016)
[16] = biological target: tetrabrachion-stabilised recombinant N2 NA (NACHO) of A/OHIO/13/2017 (not stated | influenza A virus (H3N2) A/OHIO/13/2017)
[17] = biological target: tetrabrachion-stabilised recombinant N2 NA (NACHO) of A/OHIO/62/2012 (not stated | influenza A virus (H3N2) A/OHIO/62/2012)
[18] = biological target: tetrabrachion-stabilised recombinant N2 NA (NACHO) of A/ONTARIO/RV3236/2016 (not stated | influenza A virus (H3N2) A/ONTARIO/RV3236/2016)
[19] = biological target: tetrabrachion-stabilised recombinant N2 NA (NACHO) of A/PERTH/16/2009 (not stated | influenza A virus (H3N2) A/PERTH/16/2009)
[20] = biological target: tetrabrachion-stabilised recombinant N2 NA (NACHO) of A/POLAND/19B/2017 (not stated | influenza A virus (H3N2) A/POLAND/19B/2017)
[21] = biological target: tetrabrachion-stabilised recombinant N2 NA (NACHO) of A/PORTOALEGRE/LACENRS2376/2014 (not stated | influenza A virus (H3N2) A/PORTOALEGRE/LACENRS2376/2014)
[22] = biological target: tetrabrachion-stabilised recombinant N2 NA (NACHO) of A/STOCKHOLM/15/2014 (not stated | influenza A virus (H3N2) A/STOCKHOLM/15/2014)
[23] = biological target: tetrabrachion-stabilised recombinant N2 NA (NACHO) of A/STOCKHOLM/32/2014 (not stated | influenza A virus (H3N2) A/STOCKHOLM/32/2014)
[24] = biological target: tetrabrachion-stabilised recombinant N2 NA (NACHO) of A/SWEDEN/3/2017 (not stated | influenza A virus (H3N2) A/SWEDEN/3/2017)
[25] = biological target: tetrabrachion-stabilised recombinant N2 NA (NACHO) of A/SWITZERLAND/9715293/2013 (not stated | influenza A virus (H3N2) A/SWITZERLAND/9715293/2013)
[26] = biological target: tetrabrachion-stabilised recombinant N2 NA (NACHO) of A/TASMANIA/1018/2015 (not stated | influenza A virus (H3N2) A/TASMANIA/1018/2015)
[27] = biological target: tetrabrachion-stabilised recombinant N2 NA (NACHO) of A/TEHRAN/996/2012 (not stated | influenza A virus (H3N2) A/TEHRAN/996/2012)
[28] = biological target: tetrabrachion-stabilised recombinant N2 NA (NACHO) of A/UTAH/11/2011 (not stated | influenza A virus (H3N2) A/UTAH/11/2011)
[29] = biological target: tetrabrachion-stabilised recombinant N2 NA (NACHO) of A/WISCONSIN/16/2015 (not stated | influenza A virus (H3N2) A/WISCONSIN/16/2015)
[30] = biological target: tetrabrachion-stabilised recombinant N2 NA (NACHO) of A/XINJ…/1411/2012 (not stated | influenza A virus (H3N2) A/XINJ…/1411/2012)

## tetrabrachion-stabilised recombinant N2 NA (NACHO) of A/ALASKA/251/2015 (enzyme)
[1]
  stoichiometry N: 4

## tetrabrachion-stabilised recombinant N2 NA (NACHO) of A/DAKAR/14/2014 (enzyme)
[2]
  stoichiometry N: 4

## tetrabrachion-stabilised recombinant N2 NA (NACHO) of A/ESTONIA/91621/2015 (enzyme)
[3]
  stoichiometry N: 4

## tetrabrachion-stabilised recombinant N2 NA (NACHO) of A/GAMBIA/G0071436/2012 (enzyme)
[4]
  stoichiometry N: 4

## tetrabrachion-stabilised recombinant N2 NA (NACHO) of A/HANOI/ELI15597/2015 (enzyme)
[5]
  stoichiometry N: 4

## tetrabrachion-stabilised recombinant N2 NA (NACHO) of A/HEILONGJIANGXIANGYANG/1134/2011 (enzyme)
[6]
  stoichiometry N: 4

## tetrabrachion-stabilised recombinant N2 NA (NACHO) of A/HELSINKI/823/2013 (enzyme)
[7]
  stoichiometry N: 4

## tetrabrachion-stabilised recombinant N2 NA (NACHO) of A/HELSINKI/941/2013 (enzyme)
[8]
  stoichiometry N: 4

## tetrabrachion-stabilised recombinant N2 NA (NACHO) of A/HOKKAIDO/10H079/2011 (enzyme)
[9]
  stoichiometry N: 4

## tetrabrachion-stabilised recombinant N2 NA (NACHO) of A/HONGKONG/3089/2017 (enzyme)
[10]
  stoichiometry N: 4

## tetrabrachion-stabilised recombinant N2 NA (NACHO) of A/INDIANA/08/2011 (enzyme)
[11]
  stoichiometry N: 4

## tetrabrachion-stabilised recombinant N2 NA (NACHO) of A/INDIANA/18/2017 (enzyme)
[12]
  stoichiometry N: 4

## tetrabrachion-stabilised recombinant N2 NA (NACHO) of A/MINNESOTA/11/2010 (enzyme)
[13]
  stoichiometry N: 4

## tetrabrachion-stabilised recombinant N2 NA (NACHO) of A/NAGANO/2153/2017 (enzyme)
[14]
  stoichiometry N: 4

## tetrabrachion-stabilised recombinant N2 NA (NACHO) of A/NEWCALEDONIA/23/2016 (enzyme)
[15]
  stoichiometry N: 4

## tetrabrachion-stabilised recombinant N2 NA (NACHO) of A/OHIO/13/2017 (enzyme)
[16]
  stoichiometry N: 4

## tetrabrachion-stabilised recombinant N2 NA (NACHO) of A/OHIO/62/2012 (enzyme)
[17]
  stoichiometry N: 4

## tetrabrachion-stabilised recombinant N2 NA (NACHO) of A/ONTARIO/RV3236/2016 (enzyme)
[18]
  stoichiometry N: 4

## tetrabrachion-stabilised recombinant N2 NA (NACHO) of A/PERTH/16/2009 (enzyme)
[19]
  stoichiometry N: 4

## tetrabrachion-stabilised recombinant N2 NA (NACHO) of A/POLAND/19B/2017 (enzyme)
[20]
  stoichiometry N: 4

## tetrabrachion-stabilised recombinant N2 NA (NACHO) of A/PORTOALEGRE/LACENRS2376/2014 (enzyme)
[21]
  stoichiometry N: 4

## tetrabrachion-stabilised recombinant N2 NA (NACHO) of A/STOCKHOLM/15/2014 (enzyme)
[22]
  stoichiometry N: 4

## tetrabrachion-stabilised recombinant N2 NA (NACHO) of A/STOCKHOLM/32/2014 (enzyme)
[23]
  stoichiometry N: 4

## tetrabrachion-stabilised recombinant N2 NA (NACHO) of A/SWEDEN/3/2017 (enzyme)
[24]
  stoichiometry N: 4

## tetrabrachion-stabilised recombinant N2 NA (NACHO) of A/SWITZERLAND/9715293/2013 (enzyme)
[25]
  stoichiometry N: 4

## tetrabrachion-stabilised recombinant N2 NA (NACHO) of A/TASMANIA/1018/2015 (enzyme)
[26]
  stoichiometry N: 4

## tetrabrachion-stabilised recombinant N2 NA (NACHO) of A/TEHRAN/996/2012 (enzyme)
[27]
  stoichiometry N: 4

## tetrabrachion-stabilised recombinant N2 NA (NACHO) of A/UTAH/11/2011 (enzyme)
[28]
  stoichiometry N: 4

## tetrabrachion-stabilised recombinant N2 NA (NACHO) of A/WISCONSIN/16/2015 (enzyme)
[29]
  stoichiometry N: 4

## tetrabrachion-stabilised recombinant N2 NA (NACHO) of A/XINJ…/1411/2012 (enzyme)
[30]
  stoichiometry N: 4
